The data set relates to MS2 coat protein. Put plainly: apparent KD of MS2 coat protein; designed switch direction (-1 OFF switch, 1 ON switch): -1; higher = weaker reporter binding. The method in brief: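 Transcription of designed RNA switches on Illumina chips was done by stalled E. coli RNA polymerase. SNAP-549-labelled MS2 coat protein was then titrated in doubling steps from 0.7 or 1.5 nM to 3 µM, with steps of 0.8–1.5 h at the lowest and 10–20 min at the highest concentration. The per-design median over clusters of curve-fitted normalised fluorescence is reported as apparent KD.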

[1] abbreviates: input ligand: microRNA oligo, concentration not stated.
Setting [2] is: Eterna round: R95, input ligand: microRNA oligo, concentration not stated.

The results in this text go back to the supplement of paper PMC9170038.

Regarding “ACAUGAGGAUCACCCAUGUGACCACGAUGGCUGAUGUAGAGCUAGGAUAUGUGUGAAUAUCUAUCACAGAAGGAGCUUGACUGG [Deportation 52 - Jieux - Exclusion NG 3] (Eterna round: R96, puzzle: Exclusion NG 3)”, the “apparent KD of MS2 coat protein” value came to 24.7 nM (input ligand: FMN 200 uM), 18.3 nM under setting [1] and 25.7 nM (input ligand: none).
As to “ACAUGAGGAUCACCCAUGUGCACGUAAUGGCUCAUGUAGAGAGAGGAUAUGUGUGACGAACGAGCACAGAAGGCUCAAGACUGG [Deportation 14 - Jieux - Exclusion NG 3] (Eterna round: R96, puzzle: Exclusion NG 3)”, the “apparent KD of MS2 coat protein” value by setting is: (input ligand: FMN 200 uM) 202 nM; under setting [1], 133 nM; (input ligand: none) 179 nM.
Consider “ACAUGAGGAUCACCCAUGUGCACGUAAUGGCUCAUGUAGAGUGAGGAUAUGCGUGGCGAACUCGCGCAGAAGGCACAAGACUGG [Deportation 19 - Jieux - Exclusion NG 3] (Eterna round: R96, puzzle: Exclusion NG 3)”, for which the “apparent KD of MS2 coat protein” value by setting is: (input ligand: FMN 200 uM) 88.8 nM; under setting [1], 65.9 nM; (input ligand: none) 82.5 nM.
With “ACAUGAGGAUCACCCAUGUGGACGUAAAGGCUCAUGUAGAGUGAGGAUAUGUGAGACGAACGAGAACAGAAGGCACAAGACAGG [Deportation 6 - Jieux - Exclusion NG 3] (Eterna round: R96, puzzle: Exclusion NG 3)”, the “apparent KD of MS2 coat protein” value was 15.7 nM (input ligand: FMN 200 uM), 16.7 nM under setting [1] and 19.9 nM (input ligand: none).
Regarding “ACAUGAGGAUCACCCAUGUUCGGCUGGUCCGUCUCGGCUGUCGAGGAUAUAGCUCGGUGUCCGCGCUAGAAGGCGGGAGCUGGC [Aenatbe mod 66] (Eterna round: R96, puzzle: Exclusion NG 3)”, the “apparent KD of MS2 coat protein” value runs as follows: (input ligand: FMN 200 uM) 106 nM; under setting [1], 47 nM; (input ligand: none) 90 nM.
On to “ACAUGAGGCGAAGGAUAUCUUUAGAGGAUUACCAGAGAAGGUCGACAUGAGGAUCACCCAUGUACAUGAGGGUCUUGAAUGUUA [9th something] (Eterna round: R96, puzzle: Exclusion NG 1)”, for which the “apparent KD of MS2 coat protein” value by setting is: (input ligand: FMN 200 uM) 245 nM; under setting [1], 199 nM; (input ligand: none) 250 nM.
For the sequence “ACAUGAUACUAGGAUAUCAGCAUACUUCAAUGUUGAGAAGGAGUAACAUGAGGAUCACCCAUGUAUCCAACAUG [Exclusion 6 - 4:b] (puzzle: Exclusion 6)”, the “apparent KD of MS2 coat protein” value under setting [2] turned out to be 43.5 nM.
Regarding “ACAUGUAAUGCAGGAUAUCGGACACAUGAGGAUCACCCAUGUGACCUGAGGUAUUGCUAAGAGUCUGAGAAGGGUAUGUACAUG [Ex NG2 #51] (Eterna round: R96, puzzle: Exclusion NG 2)”, the “apparent KD of MS2 coat protein” value was found to be 28.7 nM (input ligand: FMN 200 uM), 15.7 nM under setting [1] and 20.4 nM (input ligand: none).
The like results for “ACAUGUAAUGUAGGAUAUUUUACACAUGAGGAUCACCCAUGUGACCAGAGGCUUUACUAUGAGUAAAAGAAGGGUAUGUACAUG [Ex NG2 #60] (Eterna round: R96, puzzle: Exclusion NG 2)” were, in that order, 69.6 nM, 33.5 nM and 54.2 nM.
The like results for “ACAUGUCAUCGAGGAUAUUGGACACAUGAGGAUCACCCAUGUACCCGGAGGCUCUACUAUGAGUUCGAGAAGGCGAUGUACAUG [Ex NG2 #74] (Eterna round: R96, puzzle: Exclusion NG 2)” were, in that order, 169 nM, 19.5 nM and 25.6 nM.
On to “ACAUGUGUUGUAGGAUAUAGGAGACAUGAGGAUCACCCAUGUUGAUUCAUGUCUAUGGAAACGUCCUAGAAGGACGACAACAUG [Ex NG2 #20] (Eterna round: R96, puzzle: Exclusion NG 2)”, for which the “apparent KD of MS2 coat protein” value came to 237 nM (input ligand: FMN 200 uM), 111 nM under setting [1] and 201 nM (input ligand: none).
As to “ACAUGUGUUGUAGGAUAUAGUGGACAUGAGGAUCACCCAUGUUGAUUCAUGUCUAUGGAAACGUACUAGAAGGACGACAAUAUG [Ex NG2 #18] (Eterna round: R96, puzzle: Exclusion NG 2)”, the “apparent KD of MS2 coat protein” value (input ligand: FMN 200 uM) amounted to 806 nM, the “apparent KD of MS2 coat protein” value under setting [1] came out at 875 nM and the “apparent KD of MS2 coat protein” value (input ligand: none) amounted to 1050 nM.
As to “ACAUUACAUGAGGAUCACCCAUGUGAGGAUAUGGUGCGGUAGUGUCCUGUCGCGUACACCAGAAGGCGCGGGUG [1st #47] (Eterna round: R97, puzzle: Exclusion 1)”, the “apparent KD of MS2 coat protein” value was found to be 122 nM (input ligand: FMN 200 uM) and 258 nM (input ligand: none).
On the same counts, the results for “ACAUUCAGAGGAUAUGCGCAUAGAUAAGACUUUGUUUCUUAACAUGAGGAUCACCCAUGUAGAAGGCUGUACCC [Ex2 #66] (Eterna round: R97, puzzle: Exclusion 2)” are 26.6 nM and 20.9 nM.
Take “ACAUUCAGAGGAUAUGCGCAUAGAUAAGACUUUUUUUUUUAACAUGAGGAUCACCCAUGUAGAAGGCUGUAACC [Ex2 #48] (Eterna round: R97, puzzle: Exclusion 2)”: the “apparent KD of MS2 coat protein” value came to 23.8 nM (input ligand: FMN 200 uM) and 24.3 nM (input ligand: none).
For the sequence “ACAUUGAAUGUGAGGAUAUCGAUGUGAUGGGUUGUCGAGAAGGCACAUGAGGAUCACCCAUGUGGGAAACAGCA [JR_BMEx4_Sub031] (Eterna round: R97, puzzle: Brourd's mod of Exclusion 4)”, the “apparent KD of MS2 coat protein” value by setting is: (input ligand: FMN 200 uM) 127 nM; (input ligand: none) 44.6 nM.
Consider “ACAUUGUAUGUGAGGAUAUCGAUGGGAUGGGUUGUCGAGAAGGCACAUGAGGAUCACCCAUGUAAGGGACAGCA [JR_BMEx4_Sub029] (Eterna round: R97, puzzle: Brourd's mod of Exclusion 4)”, for which the “apparent KD of MS2 coat protein” value runs as follows: (input ligand: FMN 200 uM) 295 nM; (input ligand: none) 83.1 nM.
The like results for “ACCGACAGAGGAUAUGCAAGUAGGAACAUGAGGAUCACCCAUGUGAUACGUGCACGUGCGGCAGAAGGCUGAUCGA [Velamaed] (Eterna round: R97, puzzle: Exclusion 5)” were, in that order, 17.1 nM and 15.4 nM.
For the sequence “ACCUAACAUGAGGAUCACCCAUGUCAGGAUAUCCAAGCGAAAGCAAAAGCGAAAGCAAGGAGAAGGGACAGAGG [ChP 04-04-2015 #8] (puzzle: Exclusion 1)”, the “apparent KD of MS2 coat protein” value (Eterna round: R95, input ligand: FMN 200 uM) worked out at 62.2 nM; the “apparent KD of MS2 coat protein” value under setting [2] was 32.4 nM; the “apparent KD of MS2 coat protein” value (Eterna round: R95, input ligand: none) was determined as 28.4 nM.
In the case of “ACCUCACAUGAGGAUCACCCAUGUCAGGAUAUCUAAUAUUGCAGCGUUCCCGACGCUGAGAGAAGGGACAUUAA [EX1 #30] (Eterna round: R97, puzzle: Exclusion 1)”, the “apparent KD of MS2 coat protein” value was determined as 29.6 nM (input ligand: FMN 200 uM) and 17.7 nM (input ligand: none).
On to “ACCUCUGAGGAGGAUAUACAGUGCGAAAGGACAGUAGAAGGCUUCACAUGAGGAUCACCCAUGUCGAAAAGUGA [EX6 #80] (Eterna round: R97, puzzle: Exclusion 6)”, for which the “apparent KD of MS2 coat protein” value was 127 nM (input ligand: FMN 200 uM) and 92.6 nM (input ligand: none).
On the same counts, the results for “ACGACCUGAGGAUAUACAUGAGGAUCACCCAUGUAUGCAACAGCCGGGAAAUCCCGAUGUAGAAGGCAGGAAAA [Eternabot (Original) Solution 26] (Eterna round: R97, puzzle: Exclusion 3)” are 252 nM and 32.2 nM.
